Results taken from article doi:10.1101/2025.04.25.650662 (bioRxiv, 2025).

Experiments:
[1] = target: Leucine-rich repeat containing, G protein-coupled receptor 5 (LGR5), human, on HEK293T cells (HEK293-LGR5-DeltaC) (human) (UniProt O75473); assay: whole-cell binding assay
[2] = target: Leucine-rich repeat containing, G protein-coupled receptor 4 (LGR4), human, on HEK293T cells (human, UniProt Q9BXB1 25-951); assay: whole-cell binding assay

Chain of Leucine-rich repeat containing, G protein-coupled receptor 5 (LGR5), human, on HEK293T cells (HEK293-LGR5-DeltaC) (human) (O75473 22-907, stated change not applied): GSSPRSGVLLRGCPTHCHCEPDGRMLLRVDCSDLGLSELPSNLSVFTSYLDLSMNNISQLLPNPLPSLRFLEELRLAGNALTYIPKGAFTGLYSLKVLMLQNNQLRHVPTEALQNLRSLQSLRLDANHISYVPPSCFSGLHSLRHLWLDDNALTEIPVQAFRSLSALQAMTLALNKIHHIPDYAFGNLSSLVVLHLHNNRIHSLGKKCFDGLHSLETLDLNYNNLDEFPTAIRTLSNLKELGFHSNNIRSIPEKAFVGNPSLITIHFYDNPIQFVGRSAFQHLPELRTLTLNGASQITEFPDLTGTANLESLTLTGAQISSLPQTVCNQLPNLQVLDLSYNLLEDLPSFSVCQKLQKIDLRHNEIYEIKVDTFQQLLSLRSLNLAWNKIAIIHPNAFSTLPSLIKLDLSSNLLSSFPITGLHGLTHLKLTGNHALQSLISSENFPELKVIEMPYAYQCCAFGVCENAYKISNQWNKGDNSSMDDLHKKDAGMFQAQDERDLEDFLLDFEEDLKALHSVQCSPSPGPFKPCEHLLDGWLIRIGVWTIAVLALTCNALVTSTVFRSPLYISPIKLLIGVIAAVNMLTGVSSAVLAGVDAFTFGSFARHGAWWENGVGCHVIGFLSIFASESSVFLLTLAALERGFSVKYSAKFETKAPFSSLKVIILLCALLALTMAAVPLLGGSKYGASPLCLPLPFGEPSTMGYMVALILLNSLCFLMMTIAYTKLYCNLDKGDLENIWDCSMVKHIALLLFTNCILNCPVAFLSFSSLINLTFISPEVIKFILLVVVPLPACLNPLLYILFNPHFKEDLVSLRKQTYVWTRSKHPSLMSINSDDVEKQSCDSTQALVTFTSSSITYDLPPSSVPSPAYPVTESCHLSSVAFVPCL

B1: R232, RSPO2 furin domain M68T/Q70R double mutant fused to human IgG1-Fc (Fc fusion)
chain: CKGCLSCSKDNGCSRCQQKLFFFLRREGTRRYGECLHSCPSGYYGHRAPDMNRCARCRIENCDSCFSKDFCTKCKVGFYLHRGRCFDECPDGFAPLEETMEC
Kd [1]: 0.3 nM
Kd [2]: 0.2 nM
